Results from patent publication US20260008815A1, “CYCLIC PEPTIDE OR SALT THEREOF, AND USES THEREOF” (FUJIFILM Corporation, priority 2023, published 2026).
Bridge positions count the residues as written; N and C are the ends. Ends that are not written are not given here. COCH2 = acetyl group that carries the bridge

Molecular target: T1, Recombinant Human FGFR2 alpha (IIIc) Fc Chimera Protein, CF (R&D systems, 712-FR-050) (human, UniProt P21802 22-377)
T1 construct: bought; not shown: Fc part of the chimera
T1 sequence (P21802 22-377, change not shown): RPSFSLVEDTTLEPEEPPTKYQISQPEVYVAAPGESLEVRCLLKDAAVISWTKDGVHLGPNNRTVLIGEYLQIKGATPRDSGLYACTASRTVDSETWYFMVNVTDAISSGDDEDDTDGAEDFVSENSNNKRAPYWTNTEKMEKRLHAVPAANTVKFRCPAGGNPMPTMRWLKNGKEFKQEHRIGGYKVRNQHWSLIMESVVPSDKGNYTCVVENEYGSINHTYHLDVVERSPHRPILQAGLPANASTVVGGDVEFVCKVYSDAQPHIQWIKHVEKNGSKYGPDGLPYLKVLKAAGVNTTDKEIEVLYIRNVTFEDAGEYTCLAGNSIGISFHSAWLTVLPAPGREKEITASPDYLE
Assay: ELISA on plate-bound FGFR2-Fc
Outline: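 Plate-immobilized FGFR2 alpha (IIIc)-Fc (5 ng/well) incubated with peptide 3 h at room temperature, then anti-Myc antibody 2 h and chemiluminescent ELISA substrate. Signal corrected by subtracting FGFR-free wells; binding affinity scored into categories from the dose-response.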

Row | Binder | ELISA luminescence signal at 10 nmol/L peptide, relative to SEQ ID NO: 47 (=1)
1 | KCAPQNFINPVQWRYFQHYKN (thioether ring (C)-(K(acetyl))) [cyclic peptide SEQ ID NO: 70] | 0.5 to 0.7 ratio
2 | ACRRANWIHPIQWFFFHVYK(COCH2)H (thioether 2-20) [cyclic peptide SEQ ID NO: 403] | 0.5 to 0.7 ratio
3 | DCIRPYDQLQLIYQYLYQLK(COCH2)K (thioether 2-20; not fully specified; printed as D-(C)-IRPYDQLQLIYQYLYQL-(K(acetyl))-K) [cyclic peptide SEQ ID NO: 404] | 0.1 to 0.5 ratio
4 | QCLTQRVYLRQLAYYRLYRK(COCH2)I (thioether 2-20 (inferred)) [cyclic peptide SEQ ID NO: 405] | 0.1 to 0.5 ratio
5 | PCEQQNFHSVIQWHFFAQYK(COCH2)N (thioether 2-20 (inferred)) [cyclic peptide SEQ ID NO: 406] | ≥ 0.7 ratio
6 | LCVQGNYQNPTQWYYFQLYK(COCH2)W (thioether 2-20 (inferred)) [cyclic peptide SEQ ID NO: 407] | 0.5 to 0.7 ratio
7 | HCSQHQTTYYQIYAYLHAIK(COCH2)I (thioether 2-20 (inferred)) [cyclic peptide SEQ ID NO: 408] | 0.1 to 0.5 ratio
8 | LCNNWENYFDWLQWSYYIAYK(COCH2)E (thioether 2-21 (inferred)) [cyclic peptide SEQ ID NO: 409] | ≥ 0.7 ratio
9 | WCQESSNYLAPLQWYFFNWYK(COCH2)T (thioether 2-21 (inferred)) [cyclic peptide SEQ ID NO: 410] | ≥ 0.7 ratio
10 | TCVDKDNWYNHVQWQYFFLYK(COCH2)Q (thioether 2-21) [cyclic peptide SEQ ID NO: 411] | ≥ 0.7 ratio
11 | QCEYALQYYRFYVAQRHWVDK(COCH2)L (thioether 2-21 (inferred)) [cyclic peptide SEQ ID NO: 412] | 0.1 to 0.5 ratio
12 | QCDQDAIQWVYDLQYYRVWHK(COCH2)V (thioether 2-21 (inferred)) [cyclic peptide SEQ ID NO: 413] | 0.1 to 0.5 ratio
13 | YCNYEWDGARRQIAYYRIFLK(COCH2)L (thioether 2-21 (inferred)) [cyclic peptide SEQ ID NO: 414] | 0.1 to 0.5 ratio
14 | YCDWVEVANARQLAYYTLYRK(COCH2)K (thioether 2-21) [cyclic peptide SEQ ID NO: 415] | 0.1 to 0.5 ratio
15 | LCTQFPASQRYYFALYRLWHK(COCH2)S (thioether 2-21 (inferred)) [cyclic peptide SEQ ID NO: 416] | 0.1 to 0.5 ratio
16 | LCQIYLYLTALQQGFEDFYPK(COCH2)N (thioether 2-21 (inferred)) [cyclic peptide SEQ ID NO: 417] | 0.1 to 0.5 ratio

Row | Binder | ELISA luminescence signal at 10 nmol/L peptide, relative to SEQ ID NO: 47 (=1)
17 | DCLRQQVYQYLYILFQNDIAK(COCH2)D (thioether 2-21 (inferred)) [cyclic peptide SEQ ID NO: 418] | 0.1 to 0.5 ratio
18 | DCHTREDWQIHHLYQLLYQLK(COCH2)Y (thioether 2-21 (inferred)) [cyclic peptide SEQ ID NO: 419] | 0.1 to 0.5 ratio
19 | YCEAQPYYFQLYRLWHRQEK(COCH2)P (thioether 2-20 (inferred)) [cyclic peptide SEQ ID NO: 420] | 0.1 to 0.5 ratio
20 | VCLDEQQALFHQYYRITRRK(COCH2)V (thioether 2-20 (inferred)) [cyclic peptide SEQ ID NO: 421] | 0.1 to 0.5 ratio
21 | YCTQEQAFRQLAYYQIFRRSK(COCH2)S (thioether 2-21 (inferred)) [cyclic peptide SEQ ID NO: 422] | 0.1 to 0.5 ratio
22 | WCFTEGIQSTVQLTYSYLYK(COCH2)L (thioether 2-20 (inferred)) [cyclic peptide SEQ ID NO: 423] | 0.1 to 0.5 ratio
23 | VCTQPQQDFELIYQYLYQLAK(COCH2)Q (thioether 2-21 (inferred)) [cyclic peptide SEQ ID NO: 424] | 0.1 to 0.5 ratio
24 | GCGYTQLHYQHLFAWLHARK(COCH2)V (thioether 2-20 (inferred)) [cyclic peptide SEQ ID NO: 425] | 0.1 to 0.5 ratio
25 | PCDPLNLQQWYTAVYQLWHK(COCH2)R (thioether 2-20 (inferred)) [cyclic peptide SEQ ID NO: 426] | 0.1 to 0.5 ratio
26 | ECDTADYPQEWIQDVYQYLYK(COCH2)R (thioether 2-21 (inferred)) [cyclic peptide SEQ ID NO: 427] | 0.1 to 0.5 ratio
27 | ECDQAQQVYALIYRYLYQLQK(COCH2)V (thioether 2-21 (inferred)) [cyclic peptide SEQ ID NO: 428] | 0.1 to 0.5 ratio
28 | YCHENYLDPEQYQYFHYFK(COCH2) (thioether 2-19 (inferred)) [cyclic peptide SEQ ID NO: 429] | 0.1 to 0.5 ratio
29 | CHENYLDPEQYQYFHYFK(COCH2)Y (thioether 1-18 (inferred)) [cyclic peptide SEQ ID NO: 430] | ≥ 0.7 ratio
30 | CHENYLDPEQYQYFHYFK(COCH2) (thioether 1-18 (inferred)) [cyclic peptide SEQ ID NO: 431] | 0.1 to 0.5 ratio
31 | CENYLDPEQYQYFHYFK(COCH2)Y (thioether 1-17 (inferred)) [cyclic peptide SEQ ID NO: 432] | 0.1 to 0.5 ratio
32 | QCQLNYWDDLQFTYYLQYK(COCH2)V (thioether 2-19) [cyclic peptide SEQ ID NO: 37] | ≥ 0.7 ratio
